# Experimental data: paper PMC8131632 (2021)
# B1: REGN10933 Ig-TD (antibody, V domains shown)
# VH: QVQLVESGGGLVKPGGSLRLSCAASGFTFSDYYMSWIRQAPGKGLEWVSYITYSGSTIYYADSVKGRFTISRDNAKSSLYLQMNSLRAEDTAVYYCARDRGTTMVPFDYWGQGTLVTVSS
# VL: DIQMTQSPSSLSASVGDRVTITCQASQDITNYLNWYQQKPGKAPKLLIYAASNLETGVPSRFSGSGSGTDFTFTISGLQPEDIATYYCQQYDNLPLTFGGGTKVEIK
# B2: REGN10933 Fab-TD (Fab, V domains shown)
# VH: B1 VH
# VL: B1 VL
# B3: REGN10933 mIg-TD (antibody, V domains shown)
# VH: B1 VH
# VL: B1 VL
# B4: REGN10933 IgG1 (antibody, V domains shown)
# VH: B1 VH
# VL: B1 VL
# B5: REGN10987 Fab-TD (Fab, V domains shown)
# VH: QVQLVESGGGVVQPGRSLRLSCAASGFTFSNYAMYWVRQAPGKGLEWVAVISYDGSNKYYADSVKGRFTISRDNSKNTLYLQMNSLRTEDTAVYYCASGSDYGDYLLVYWGQGTLVTVSS
# VL: QSALTQPASVSGSPGQSITISCTGTSSDVGGYNYVSWYQQHPGKAPKLMIYDVSKRPSGVSNRFSGSKSGNTASLTISGLQSEDEADYYCNSLTSISTWVFGGGTKLTVL
# B6: REGN10987 Ig-TD (antibody, V domains shown)
# VH: B5 VH
# VL: B5 VL
# B7: REGN10987 mIg-TD (antibody, V domains shown)
# VH: B5 VH
# VL: B5 VL
# B8: CB6/Junshi Fab-TD (Fab, V domains shown)
# VH: EVQLVESGGGLVQPGGSLRLSCAASGFTVSSNYMSWVRQAPGKGLEWVSVIYSGGSTFYADSVKGRFTISRDNSMNTLFLQMNSLRAEDTAVYYCARVLPMYGDYLDYWGQGTLVTVSS
# VL: not shown
# B9: CB6/Junshi Ig-TD (antibody, V domains shown)
# VH: B8 VH
# VL: not shown
# B10: CB6/Junshi mIg-TD (antibody, V domains shown)
# VH: B8 VH
# VL: not shown
# Biological target: SARS-CoV-2 spike receptor binding domain (RBD), Avi-tagged and biotinylated (SARS-CoV-2, UniProt P0DTC2 319-541, biotin (Avi tag, by BirA))
# Assay: ELISA
row,Binder,IC50 [nM]
1,B1,0.045
2,B2,0.012
3,B3,0.18
4,B4,1.45
5,B5,0.02
6,B6,0.12
7,B7,0.4
8,B8,0.03
9,B9,0.1
10,B10,0.29
